This note sets out measurements from patent US20240270841A1 (LG CHEM, published 2024).

The target in assay [1] is T1, human LILRA3 overexpressed on CHO cells (human, UniProt Q8N6C8 24-439).
T1 construct: Full-length protein expressed in CHO cells; also called AAH28208
The experiment in a line: flow cytometry (iQue screener, BL1-H channel), CHO cells overexpressing LILRA3, anti-human Fc-biotin + labelled streptavidin [panel LILRA3]. As to the method: (§1) In order to confirm whether or not the selected antibodies bind to human LILR family proteins other than LILRB1, a cell surface binding assay was performed. The CHO cells (prepared in Example 5) expressing each of various LILR family proteins on surface were added to U-bottom 96-well tissue culture plate (BD Falcon) at the amount of 1×10⁵ cells/well. The cells in each well were treated with the selected antibody in the final concentration of 20 ug/mL and incubated at 4° C. for 60 minutes. After washing with FACS buffer, the cells were treated with anti-human Fc-biotin antibody (Invitrogen) and incubated at 4° C. for 30 minutes. After washing with FACS buffer, the cells were treated with streptavidin (BD Pharmigen) labeled with PE or FITC fluorescence and incubated at 4° C. for 30 minutes. After washing with FACS buffer, the cells were resuspended and subjected to analysis using iQue screener (Sartorius). The cells treated with each LILR protein specific antibody (Table 27) were used as a positive control, and the cells treated with human IgG4 isotype control antibody (Biolegend) were used as a negative control.

The target in assay [2] is T2, human LILRA6 overexpressed on CHO cells (human, UniProt Q6PI73 24-481).
T2 construct: Full-length protein expressed in CHO cells; also called NP_001347096
The experiment in a line: flow cytometry (iQue screener), CHO cells overexpressing LILRA6, anti-human Fc-biotin + streptavidin-PE [panel LILRA6]. On the procedure:
as §1
On the technique in general: In flow cytometry, cells or beads pass a laser one at a time.

Assay [3] deals with T3, human LILRB4 overexpressed on CHO cells (human, UniProt Q8NHJ6 22-448).
T3 construct: Full-length protein expressed in CHO cells; also called NP_001265355
The experiment in a line: flow cytometry (iQue screener), CHO cells overexpressing LILRB4, anti-human Fc-biotin + streptavidin-PE [panel LILRB4]. As to the method: as §1

The target in assay [4] is T4, human LILRA1 overexpressed on CHO cells (human, UniProt O75019 17-489).
T4 construct: Full-length protein expressed in CHO cells; also called NP_006854
Put plainly: flow cytometry (iQue screener), CHO cells overexpressing LILRA1, anti-human Fc-biotin + streptavidin-PE [panel LILRA1]. On the procedure: as §1

Assay [5] deals with T5, human LILRA2 overexpressed on CHO cells (human, UniProt Q8N149 24-483).
T5 construct: Full-length protein expressed in CHO cells; also called AAH17412
The experiment in a line: flow cytometry (iQue screener), CHO cells overexpressing LILRA2, anti-human Fc-biotin + streptavidin-PE [panel LILRA2]. As to the method:
as §1

The target in assay [6] is T6, human LILRB1 overexpressed on CHO cells (human, UniProt Q8NHL6 24-650).
T6 construct: Full-length protein expressed from a vector in CHO cells; also called AAH15731
Put plainly: flow cytometry (iQue) on CHO cells overexpressing LILRB1, threefold dilutions. As to the method:
In order to determine EC₅₀ values of the antibodies prepared in Examples 1 and 4 for binding to human LILRB1-overexpressing cell lines, a cell surface binding assay was performed. Representing the prepared antibodies, EC₅₀ values of E3.1 and H11 antibodies were measured. The CHO cells prepared in Example 5, which overexpress LILRB1 on surface, were added to U-bottom 96-well tissue culture plate (BD Falcon) at the amount of 1×10⁵ cells/well. Threefold serial dilutions of E3.1 and H11 antibodies were prepared starting from the final concentrations of 600 ug/mL and 27 ug/mL, respectively. The cells were treated with each of the diluted antibodies and incubated at 4° C. for 60 minutes. After washing with FACS buffer, the cells were treated with anti-human Fc-biotin antibody (Invitrogen) and incubated at 4° C. for 30 minutes. After washing with FACS buffer, the cells were treated with streptavidin (BD Pharmigen) labeled with PE fluorescence and incubated at 4° C. for 30 minutes. After washing with FACS buffer, the cells were resuspended and subjected to analysis using iQue screener (Sartorius). EC₅₀ values were calculated using nonlinear regression formula of GraphPad Prism software, and the obtained results are shown in Table 28: […]

Assay [7] addresses T7, human LILRB2 overexpressed on CHO cells (human, UniProt Q8N423 22-597).
T7 construct: Full-length protein expressed in CHO cells; also called AAH36827
The experiment in a line: flow cytometry (iQue screener), CHO cells overexpressing LILRB2, anti-human Fc-biotin + streptavidin-PE [panel LILRB2]. As to the method: as §1

Assay [8] addresses T8, human LILRB5 overexpressed on CHO cells (human, UniProt O75023 24-590).
T8 construct: Full-length protein expressed in CHO cells; also called NP_006831
The experiment in a line: flow cytometry (iQue screener), CHO cells overexpressing LILRB5, anti-human Fc-biotin + streptavidin-PE [panel LILRB5]. As to the method: as §1

The target in assay [9] is T9, human LILRA4 overexpressed on CHO cells (human, UniProt P59901 24-499).
T9 construct: Full-length protein expressed in CHO cells; also called NP_036408
The experiment in a line: flow cytometry (iQue screener), CHO cells overexpressing LILRA4, anti-human Fc-biotin + streptavidin-PE [panel LILRA4]. On the procedure:
as §1

The target in assay [10] is T10, human LILRB3 overexpressed on CHO cells (human, UniProt O75022 24-631).
T10 construct: Full-length protein expressed in CHO cells; also called XP_006726377
Put plainly: flow cytometry (iQue screener), CHO cells overexpressing LILRB3, anti-human Fc-biotin + streptavidin-PE [panel LILRB3]. As to the method: as §1

Assay [11] addresses T11, human LILRA5 overexpressed on CHO cells (human, UniProt A6NI73 42-299).
T11 construct: Full-length protein expressed in CHO cells; also called NP_067073
Put plainly: flow cytometry (iQue screener), CHO cells overexpressing LILRA5, anti-human Fc-biotin + streptavidin-PE [panel LILRA5]. On the procedure: as §1

T8 sequence (O75023 24-590 P542R limits assumed): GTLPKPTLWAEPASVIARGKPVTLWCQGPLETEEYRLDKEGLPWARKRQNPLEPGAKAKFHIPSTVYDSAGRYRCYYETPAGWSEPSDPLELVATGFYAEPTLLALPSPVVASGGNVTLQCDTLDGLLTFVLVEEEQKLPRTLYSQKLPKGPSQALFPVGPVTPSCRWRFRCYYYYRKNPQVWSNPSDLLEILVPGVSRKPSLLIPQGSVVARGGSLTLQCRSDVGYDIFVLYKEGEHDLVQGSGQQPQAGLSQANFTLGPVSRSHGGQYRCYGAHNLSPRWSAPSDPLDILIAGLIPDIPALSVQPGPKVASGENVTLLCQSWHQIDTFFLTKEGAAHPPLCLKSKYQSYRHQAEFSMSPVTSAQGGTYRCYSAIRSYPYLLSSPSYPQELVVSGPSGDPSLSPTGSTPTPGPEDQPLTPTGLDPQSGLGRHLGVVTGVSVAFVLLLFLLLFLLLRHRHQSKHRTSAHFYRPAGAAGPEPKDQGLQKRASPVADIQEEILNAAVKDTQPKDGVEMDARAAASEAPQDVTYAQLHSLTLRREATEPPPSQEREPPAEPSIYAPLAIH
T1 sequence (Q8N6C8 24-439 A105V limits assumed): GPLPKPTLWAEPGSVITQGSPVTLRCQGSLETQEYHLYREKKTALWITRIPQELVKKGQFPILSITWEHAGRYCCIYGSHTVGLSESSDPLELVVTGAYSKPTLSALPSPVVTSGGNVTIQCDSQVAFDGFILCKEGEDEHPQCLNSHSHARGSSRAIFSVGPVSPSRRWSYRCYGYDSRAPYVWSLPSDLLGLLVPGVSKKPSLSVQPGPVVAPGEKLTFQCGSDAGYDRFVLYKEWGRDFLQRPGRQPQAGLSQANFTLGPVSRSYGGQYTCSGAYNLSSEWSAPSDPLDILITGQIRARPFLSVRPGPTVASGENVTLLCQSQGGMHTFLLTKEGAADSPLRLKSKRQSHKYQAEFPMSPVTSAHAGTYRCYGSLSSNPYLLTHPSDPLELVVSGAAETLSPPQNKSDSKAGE
T6 sequence (Q8NHL6 other isoform, or with tags, fused parts or gaps limits assumed): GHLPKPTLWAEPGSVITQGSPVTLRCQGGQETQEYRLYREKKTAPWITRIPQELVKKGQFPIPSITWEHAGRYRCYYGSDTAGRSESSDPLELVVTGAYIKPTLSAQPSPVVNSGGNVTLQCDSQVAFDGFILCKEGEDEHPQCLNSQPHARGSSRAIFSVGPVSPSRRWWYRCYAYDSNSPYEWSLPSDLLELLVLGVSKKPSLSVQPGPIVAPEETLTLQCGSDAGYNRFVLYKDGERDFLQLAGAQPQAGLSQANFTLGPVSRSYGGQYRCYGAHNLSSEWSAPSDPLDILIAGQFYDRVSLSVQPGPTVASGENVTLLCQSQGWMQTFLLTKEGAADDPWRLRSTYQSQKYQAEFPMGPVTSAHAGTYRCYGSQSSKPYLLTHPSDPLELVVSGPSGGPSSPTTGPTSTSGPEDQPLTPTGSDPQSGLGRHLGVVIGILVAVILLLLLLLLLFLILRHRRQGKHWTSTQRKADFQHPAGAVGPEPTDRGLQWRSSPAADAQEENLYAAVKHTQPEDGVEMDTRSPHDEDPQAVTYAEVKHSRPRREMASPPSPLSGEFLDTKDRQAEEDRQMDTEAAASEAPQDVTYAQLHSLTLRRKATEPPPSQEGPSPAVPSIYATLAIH
T3 sequence (Q8NHJ6 22-448 D223G/Q414R limits assumed): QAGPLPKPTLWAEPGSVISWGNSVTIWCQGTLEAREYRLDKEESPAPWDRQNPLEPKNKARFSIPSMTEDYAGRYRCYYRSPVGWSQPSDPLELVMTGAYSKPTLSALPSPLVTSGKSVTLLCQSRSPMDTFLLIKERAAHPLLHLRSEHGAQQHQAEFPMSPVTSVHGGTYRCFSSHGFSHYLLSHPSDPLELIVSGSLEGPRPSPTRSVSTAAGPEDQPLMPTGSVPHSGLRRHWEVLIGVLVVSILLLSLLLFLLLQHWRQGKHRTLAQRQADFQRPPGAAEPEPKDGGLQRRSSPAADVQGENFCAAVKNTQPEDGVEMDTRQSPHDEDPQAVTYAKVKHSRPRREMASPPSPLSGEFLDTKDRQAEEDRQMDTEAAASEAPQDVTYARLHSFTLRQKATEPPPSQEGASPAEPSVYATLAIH
T4 sequence (O75019 17-489 limits assumed): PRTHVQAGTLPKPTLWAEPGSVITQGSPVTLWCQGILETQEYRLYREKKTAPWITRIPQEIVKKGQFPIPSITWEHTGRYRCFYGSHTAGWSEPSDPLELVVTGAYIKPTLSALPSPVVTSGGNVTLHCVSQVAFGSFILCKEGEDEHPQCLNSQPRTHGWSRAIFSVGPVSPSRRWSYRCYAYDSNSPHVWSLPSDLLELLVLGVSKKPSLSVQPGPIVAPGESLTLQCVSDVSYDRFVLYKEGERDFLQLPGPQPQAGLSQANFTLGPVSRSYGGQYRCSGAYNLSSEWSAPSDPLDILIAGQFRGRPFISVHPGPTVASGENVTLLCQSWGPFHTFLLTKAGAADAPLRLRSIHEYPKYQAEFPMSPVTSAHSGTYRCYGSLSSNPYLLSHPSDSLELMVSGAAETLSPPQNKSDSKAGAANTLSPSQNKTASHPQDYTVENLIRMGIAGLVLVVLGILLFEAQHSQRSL
T10 sequence (O75022 other isoform, or with tags, fused parts or gaps limits assumed): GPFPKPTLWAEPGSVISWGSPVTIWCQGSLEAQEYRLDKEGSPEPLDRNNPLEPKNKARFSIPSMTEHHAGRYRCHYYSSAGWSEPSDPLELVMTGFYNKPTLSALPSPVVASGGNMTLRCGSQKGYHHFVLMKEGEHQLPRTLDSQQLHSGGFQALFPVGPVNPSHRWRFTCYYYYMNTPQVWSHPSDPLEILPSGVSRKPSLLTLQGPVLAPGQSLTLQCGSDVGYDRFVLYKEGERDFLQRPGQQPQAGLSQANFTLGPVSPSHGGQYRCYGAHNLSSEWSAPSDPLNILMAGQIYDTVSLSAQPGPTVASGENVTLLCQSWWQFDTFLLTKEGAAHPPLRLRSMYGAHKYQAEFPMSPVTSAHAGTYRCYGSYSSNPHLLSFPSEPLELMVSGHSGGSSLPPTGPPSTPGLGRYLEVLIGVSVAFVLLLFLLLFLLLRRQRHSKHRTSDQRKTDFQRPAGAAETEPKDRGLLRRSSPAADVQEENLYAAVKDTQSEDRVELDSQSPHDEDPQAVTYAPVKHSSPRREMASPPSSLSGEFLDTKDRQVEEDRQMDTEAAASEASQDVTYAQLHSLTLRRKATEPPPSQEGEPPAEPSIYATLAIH
T5 sequence (Q8N149 other isoform, or with tags, fused parts or gaps limits assumed): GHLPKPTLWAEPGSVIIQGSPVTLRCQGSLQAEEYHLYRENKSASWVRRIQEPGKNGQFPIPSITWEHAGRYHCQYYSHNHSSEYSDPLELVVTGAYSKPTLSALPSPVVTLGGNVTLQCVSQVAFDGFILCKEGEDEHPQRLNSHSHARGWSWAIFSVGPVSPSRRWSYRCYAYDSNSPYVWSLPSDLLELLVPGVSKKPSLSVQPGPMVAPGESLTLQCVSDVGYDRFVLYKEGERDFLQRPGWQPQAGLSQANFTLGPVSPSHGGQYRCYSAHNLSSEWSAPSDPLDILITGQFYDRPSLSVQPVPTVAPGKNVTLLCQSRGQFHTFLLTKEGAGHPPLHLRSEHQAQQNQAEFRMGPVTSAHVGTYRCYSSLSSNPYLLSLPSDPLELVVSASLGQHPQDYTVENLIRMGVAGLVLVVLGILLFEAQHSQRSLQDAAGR
T9 sequence (P59901 other isoform, or with tags, fused parts or gaps limits assumed): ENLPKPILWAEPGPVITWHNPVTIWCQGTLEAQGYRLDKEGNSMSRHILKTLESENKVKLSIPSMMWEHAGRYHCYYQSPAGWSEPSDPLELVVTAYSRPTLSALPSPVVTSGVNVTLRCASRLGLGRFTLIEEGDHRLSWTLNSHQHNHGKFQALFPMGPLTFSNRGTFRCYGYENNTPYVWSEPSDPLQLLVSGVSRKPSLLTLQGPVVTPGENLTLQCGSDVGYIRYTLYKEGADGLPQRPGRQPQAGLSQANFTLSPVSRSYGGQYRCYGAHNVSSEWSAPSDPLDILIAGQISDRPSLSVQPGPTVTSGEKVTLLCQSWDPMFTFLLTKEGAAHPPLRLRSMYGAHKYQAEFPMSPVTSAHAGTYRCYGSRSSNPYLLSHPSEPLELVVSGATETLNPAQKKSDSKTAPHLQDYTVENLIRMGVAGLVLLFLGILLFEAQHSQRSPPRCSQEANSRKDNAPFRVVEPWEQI
T11 sequence (A6NI73 42-299 limits assumed): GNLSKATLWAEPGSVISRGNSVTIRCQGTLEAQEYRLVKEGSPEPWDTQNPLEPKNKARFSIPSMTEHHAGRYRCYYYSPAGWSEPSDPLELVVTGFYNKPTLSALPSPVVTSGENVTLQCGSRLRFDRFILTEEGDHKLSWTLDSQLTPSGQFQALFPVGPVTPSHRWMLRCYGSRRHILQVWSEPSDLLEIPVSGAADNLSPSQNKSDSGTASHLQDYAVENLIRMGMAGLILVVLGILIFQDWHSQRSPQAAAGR

B1: anti-LILRB1 antibody E3.1 (antibody, human IgG4 S228P, lambda)
heavy: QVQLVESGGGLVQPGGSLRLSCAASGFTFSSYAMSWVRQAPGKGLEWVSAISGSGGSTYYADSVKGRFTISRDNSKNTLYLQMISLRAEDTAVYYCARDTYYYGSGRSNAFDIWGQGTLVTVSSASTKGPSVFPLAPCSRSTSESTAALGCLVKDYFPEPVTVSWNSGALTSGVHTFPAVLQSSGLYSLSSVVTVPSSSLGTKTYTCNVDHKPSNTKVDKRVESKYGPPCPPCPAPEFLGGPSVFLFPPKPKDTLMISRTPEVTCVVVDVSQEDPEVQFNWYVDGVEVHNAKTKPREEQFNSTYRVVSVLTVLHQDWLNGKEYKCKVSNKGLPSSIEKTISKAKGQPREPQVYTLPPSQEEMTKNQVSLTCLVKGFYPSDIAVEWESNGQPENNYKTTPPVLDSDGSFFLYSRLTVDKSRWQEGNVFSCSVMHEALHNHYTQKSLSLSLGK
light: SYELTQDPAVSVALGQTVRITCQGDSLRNFYASWYQQKSGQAPVLVMYGKNNRPSGIPDRFSGSTSGNTASLTITGAQAEDEADYYCNSRDSSGSHLTGVFGGGTKVTVLGQPKANPTVTLFPPSSEELQANKATLVCLISDFYPGAVTVAWKADGSPVKAGVETTKPSKQSNNKYAASSYLSLTPEQWKSHRSYSCQVTHEGSTVEKTVAPTECS
notes: human IgG4; heavy chain of E3; also called Antibody clone E3.1
As for B1, the binding result in [1], in assay [2], in assay [3], in [4], in assay [5] and in [7] was “no binding (tested: 20 ug/mL)” each time. Further, the binding result in [8], in assay [9], in assay [10] and in assay [11] was “no binding (tested: 20 ug/mL)” each time. In addition, a half-maximal effect in assay [6] (EC50) was put at 7.15 nM.
